This passage reports self-cleavage results from the RNAGym collection of RNA variant scans (doi:10.7554/elife.80360).

First the molecules themselves.
B1: HDV Ribozyme (parent)
chain: GGCCGGCAUGGUCCCAGCCUCCUCGCUGGCGCCGGCUGGGCAACAUUCCGAGGGGACCGUCCCCUCGGUAAUGGCGAAUGGGACCCA

In the series the parent is B1. Briefly: self-cleavage, relative activity (ratio to wild type); higher = more cleavage; co-transcriptional.
As to G29A C32G, the self-cleavage was 0.0219.

Turning to G28C G73A, the self-cleavage is 0.

As to U27G U79A, the self-cleavage amounted to 0.462.

As for U27G U79G, the self-cleavage was found to be 0.427.

In the case of U27G G74A, the self-cleavage turned out to be 0.229.

With G28C A43C, the self-cleavage was 0.0573.

For G28C A43G, the self-cleavage is 0.0573.

On to G28U C33G, for which the self-cleavage worked out at 0.212.

With G28U A87G, the self-cleavage worked out at 0.0817.

With G28U A87U, the self-cleavage came to 0.116.

For G28U G80U, the self-cleavage is 0.1.

In the case of U27C U65C, the self-cleavage was 0.798.

As for G28U G82A, the self-cleavage came to 0.191.

Consider G28U G82C, for which the self-cleavage turned out to be 0.0272.

As to G28U G81C, the self-cleavage was 0.0282.

For G28U G81A, the self-cleavage was 0.158.

As for G28U C64G, the self-cleavage worked out at 0.102.

Take G28U C64U: the self-cleavage was 0.0733.

Regarding G29A G50C, the self-cleavage came to 0.121.

Consider G28U G67U, for which the self-cleavage was 0.137.

In the case of G28A G54C, the self-cleavage came out at 0.237.

Turning to U27G G31A, the self-cleavage was found to be 0.539.

In the case of U27C G54A, the self-cleavage was determined as 0.598.

For U27C G54U, the self-cleavage was found to be 0.845.

Take U27G A87C: the self-cleavage is 0.869.

Take G28U G31U: the self-cleavage was found to be 0.0923.

Take G29A G55C: the self-cleavage turned out to be 0.0563.

On to G29C A51U, for which the self-cleavage came out at 0.0308.

For G28U A71C, the self-cleavage worked out at 0.

G28U A56C: the self-cleavage is 0.

For the variant U27C G76C, the self-cleavage worked out at 1.21.

Take U27G G67U: the self-cleavage came to 0.764.

As for G29C A77G, the self-cleavage was 0.135.

Consider G28A U65C, for which the self-cleavage turned out to be 0.0415.

With G28A U37A, the self-cleavage turned out to be 0.0773.

In the case of U27G C44G, the self-cleavage stood at 0.598.

As for G29A C36U, the self-cleavage was found to be 0.0264.

In the case of G28A A87U, the self-cleavage is 0.0932.

Regarding G29A G31A, the self-cleavage was 0.0723.

As to G29A G31C, the self-cleavage came out at 0.154.

In the case of G29A G31U, the self-cleavage was 0.0272.

Turning to U27G C86G, the self-cleavage was determined as 0.745.

G28U C48G: the self-cleavage was 0.161.

Turning to G28A A83G, the self-cleavage was found to be 0.0946.

As to G28A A83C, the self-cleavage amounted to 0.0875.

Consider G28A A83U, for which the self-cleavage was 0.0308.

Regarding U27G C48A, the self-cleavage is 0.72.

U27G C48U: the self-cleavage turned out to be 0.942.

Take U27G G54C: the self-cleavage was determined as 0.914.

As to U27C G34U, the self-cleavage worked out at 0.185.

As to U27C G34C, the self-cleavage worked out at 0.106.

As for G28C G50A, the self-cleavage came to 0.151.

Take U27G U72C: the self-cleavage turned out to be 0.32.

In the case of U27C A77U, the self-cleavage is 0.262.

For the variant U27G A78U, the self-cleavage worked out at 0.0831.

U27G G81A: the self-cleavage came to 0.597.

For G28C A78G, the self-cleavage turned out to be 0.26.

Turning to G29A U37C, the self-cleavage was 0.17.

In the case of U27G C36G, the self-cleavage was determined as 0.0665.

Turning to G29A C61U, the self-cleavage was found to be 0.274.

With U27G C61U, the self-cleavage came to 0.831.

Turning to G28C G80C, the self-cleavage is 0.166.

For G28C G80U, the self-cleavage came out at 0.123.

As to G28C A51G, the self-cleavage worked out at 0.0723.

As to G28C A51C, the self-cleavage is 0.

As to U27C G73U, the self-cleavage is 0.0449.

For U27C G73A, the self-cleavage worked out at 0.231.

For U27C A43U, the self-cleavage was 0.237.

On to U27C A43G, for which the self-cleavage worked out at 0.383.

Consider G29A A56U, for which the self-cleavage turned out to be 0.111.

As for G28A A77G, the self-cleavage came to 0.111.

Consider U27C G74U, for which the self-cleavage stood at 0.332.

As for U27C G74C, the self-cleavage was 0.383.

Regarding U27G A51G, the self-cleavage stood at 1.03.

As for U27G A51C, the self-cleavage came out at 0.906.

With U27C G28C, the self-cleavage amounted to 0.123.

For G29A U69G, the self-cleavage stood at 0.0475.

In the case of G29A U69A, the self-cleavage stood at 0.172.

For U27C A56C, the self-cleavage came to 0.612.

Turning to U27C A56G, the self-cleavage is 0.575.

Turning to U27C A56U, the self-cleavage turned out to be 0.674.

With G28U A43U, the self-cleavage worked out at 0.0615.

Regarding U27G G82U, the self-cleavage is 0.095.

On to U27G G82C, for which the self-cleavage was 0.237.

For U27C G35U, the self-cleavage amounted to 0.302.

With U27A G81C, the self-cleavage came out at 0.356.

In the case of U27A C63G, the self-cleavage was 0.764.

Consider G28A C86G, for which the self-cleavage came to 0.0678.

With G29C A78G, the self-cleavage was found to be 0.

Turning to U27G G38U, the self-cleavage was 0.133.

As to U27G G38C, the self-cleavage was found to be 0.0692.

With G28C G59C, the self-cleavage is 0.212.

Turning to G28U G29U, the self-cleavage is 0.107.

U27A G73A: the self-cleavage stood at 0.391.

With U27C G59U, the self-cleavage stood at 0.76.

Consider G28A C66A, for which the self-cleavage was 0.0811.

Consider G28U C49U, for which the self-cleavage was 0.0639.

With G28U C49A, the self-cleavage stood at 0.0297.

As for G28A A51U, the self-cleavage was 0.138.

With G28C U79G, the self-cleavage was determined as 0.246.

For G29A G80U, the self-cleavage is 0.0283.

Turning to U27G G55C, the self-cleavage stood at 0.779.

G28A C61G: the self-cleavage was 0.133.

With G28A C61A, the self-cleavage came out at 0.0791.

As for U27C U72C, the self-cleavage was 0.166.

In the case of G28U G55C, the self-cleavage stood at 0.138.

Consider U27C C66U, for which the self-cleavage worked out at 0.534.

Turning to G29A G76U, the self-cleavage was determined as 0.428.

As for G29A G76A, the self-cleavage is 0.328.

For the variant U27C C62A, the self-cleavage turned out to be 0.54.

For the variant G28A G34C, the self-cleavage turned out to be 0.0536.

As for G28A G34A, the self-cleavage is 0.175.

As for G28C G31U, the self-cleavage was 0.244.

Turning to G28C C49A, the self-cleavage came out at 0.166.

With G28C C49G, the self-cleavage is 0.119.

As to U27A G54A, the self-cleavage worked out at 0.961.

For U27G C49A, the self-cleavage turned out to be 0.886.

For U27C U60A, the self-cleavage was found to be 1.09.

With G28C A71U, the self-cleavage turned out to be 0.0426.

Regarding G28A G68A, the self-cleavage amounted to 0.124.

As to G28A G68C, the self-cleavage came to 0.0692.

G29A U65G: the self-cleavage was 0.166.

G28U G34A: the self-cleavage amounted to 0.0496.

Take G29A A71C: the self-cleavage was determined as 0.089.

Regarding U27C C75A, the self-cleavage turned out to be 0.155.

With G28A G73A, the self-cleavage came out at 0.112.

On to G28A G52C, for which the self-cleavage is 0.0773.

For G28A G35C, the self-cleavage was 0.153.

Turning to G28A G35A, the self-cleavage turned out to be 0.0608.

Turning to G28U C63A, the self-cleavage turned out to be 0.0978.

Turning to G28U C63G, the self-cleavage worked out at 0.262.

U27A C75G: the self-cleavage is 0.095.

With G28A G81A, the self-cleavage is 0.101.

Take U27G A83C: the self-cleavage came to 0.831.

As to U27C C58G, the self-cleavage was found to be 0.7.

G28C C30A: the self-cleavage came to 0.

Regarding G28C C30G, the self-cleavage worked out at 0.101.

Take U27C G53C: the self-cleavage was found to be 0.898.

As to U27C G53A, the self-cleavage turned out to be 0.696.

As for G28C C61G, the self-cleavage was determined as 0.158.

G28C C61A: the self-cleavage came to 0.0755.

On to G28A A43U, for which the self-cleavage worked out at 0.0241.

Take G28A A43G: the self-cleavage was found to be 0.0739.

G28A U72G: the self-cleavage was 0.107.

As to U27A G76A, the self-cleavage is 0.997.

Consider G28C G40U, for which the self-cleavage was determined as 0.032.

Consider G28C G40A, for which the self-cleavage came to 0.148.

On to G28C U60A, for which the self-cleavage was found to be 0.104.

Consider G28C U60G, for which the self-cleavage amounted to 0.

On to G28U A83C, for which the self-cleavage worked out at 0.0811.

As to G28U U47C, the self-cleavage worked out at 0.297.

As for U27C C85G, the self-cleavage worked out at 0.751.

Consider U27C C64A, for which the self-cleavage was 0.705.

For the variant G29A A51C, the self-cleavage is 0.121.

Regarding G28C U65C, the self-cleavage is 0.101.

Take U27G G53U: the self-cleavage was 0.923.

As for U27A G38C, the self-cleavage was found to be 0.0665.

With G28A A42U, the self-cleavage amounted to 0.0723.

Turning to G28A A42C, the self-cleavage came to 0.128.

For U27G G29A, the self-cleavage was found to be 0.283.

Regarding G28C C41G, the self-cleavage was 0.

As to G28C C41U, the self-cleavage came to 0.0437.

For the variant G28C A77C, the self-cleavage came out at 0.229.

As for G28U G40A, the self-cleavage was determined as 0.104.

On to G28A A70U, for which the self-cleavage is 0.203.

Turning to G28C C44U, the self-cleavage worked out at 0.

G28C C44A: the self-cleavage was found to be 0.0475.
